Reference: patent publication US20250155441A1 (ROCHE DIAGNOSTICS OPERATIONS, published 2025)
Substitutions are numbered along the chain they refer to. Names and notes keep the numbering of the source. The star is where a group is joined. G0F = fucosylated biantennary N-glycan, CC(=O)N[C@@H]1[C@@H](O)[C@H](O[C@@H]2O[C@H](CO)[C@@H](O[C@@H]3O[C@H](CO[C@H]4O[C@H](CO)[C@@H](O)[C@H](O)[C@@H]4O[C@@H]4O[C@H](CO)[C@@H](O)[C@H](O)[C@H]4NC(C)=O)[C@@H](O)[C@H](O[C@H]4O[C@H](CO)[C@@H](O)[C@H](O)[C@@H]4O[C@@H]4O[C@H](CO)[C@@H](O)[C@H](O)[C@H]4NC(C)=O)[C@@H]3O)[C@H](O)[C@H]2NC(C)=O)[C@@H](CO[C@@H]2O[C@@H](C)[C@@H](O)[C@@H](O)[C@@H]2O)O[C@H]1*

T1: AFP(243-261)[Ac-243; Asn(G2)251; Bi-PEG] (human, N-terminal acetylation; G2 (non-fucosylated biantennary N-glycan) on Asn corresponding to Asn-251; C-terminal E(biotinyl-PEG)-NH2)
T1 peptide: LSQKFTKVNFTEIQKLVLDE

T2: AFP(243-261)[Acetyl-243; Asn(G0F)251; Bi-PEG] (human, N-terminal acetylation; G0F (fucosylated biantennary N-glycan) on Asn corresponding to Asn-251; C-terminal E(biotinyl-PEG)-NH2)
T2 construct: Synthetic glycopeptide
T2 peptide: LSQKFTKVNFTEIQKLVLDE

T3: AFP(243-261)[Asn(Fuc-GlcNAc)Bi-PEG] (human, not fully specified; Fuc-GlcNAc disaccharide on Asn corresponding to Asn-251; C-terminal E(biotinyl-PEG)-NH2)
T3 peptide: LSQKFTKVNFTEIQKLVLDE

B1: mAb<AFP-L3>rRb-19B12-IgG (antibody, V domains shown)
VH: QSVEESGGRLVAPGTPLTLTCTVSGIDLSTYGMGWVRQAPGKGLEWIGIIGDNGSTYYANWAKGRFTISKTSTTVDLKMTSLTTEDTATYFCARDRDPSSSGYYFKMWGPGTLVTVSL
VL: ALVMTQTPSSVSAAVGGTVTINCQASQSISSYLAWYQQKPGQPPKLLIFGASNLESGVPSRFKGSGSGTEFTLTISDLECDDAATYYCQTAFYIFSSDNAFGGGTEVVVK
notes: Recombinant rabbit IgG (B-cell supernatant in the Hit-ELISA, expressed in HEK293 afterwards); also called antibody 19B12; clone 19B12
B2: mAb<AFP-L3>rRb-3C5-IgG (antibody, V domains shown)
VH: QSVEESGGRLVAPGTPLTLTCTVSGIDLSTYGMGWVRQAPGKGLEYIGIIDSGSTYYANWAKGRFTISKTSTTVDLKMTSLTTEDTATYFCARDRDPSSSGYYFKMWGPGTLVTVSL
VL: B1 VL with S30G, K45R, F49Y
notes: Recombinant rabbit IgG; also called antibody 3C5; clone 3C5
B3: AFP(243-261)[Ac-243; Asn(G0F)251]amid (peptide)
peptide: Ac-LSQKFTKVN(G0F)FTEIQKLVLD-NH2
notes: also called BMO 35.000315
B4: AFP(248-256)Ac-248]amid (peptide)
peptide: Ac-TKVNFTEIQ-NH2
notes: also called BMO 35.000373

Experiments:
[1] = target: B3; experiment: SPR affinity in solution: 10 nM antibody with 120 nM-0.01 nM free peptide, free antibody read on AFP(243-261)-G0F-Bi CAP chip, n=2
Method: (§1) The dissociation equilibrium constant K) was determined via the Affinity in Solution method (AiS).
(§2) With increasing peptide concentration as a competitor, the ‘free’ antibody in solution decreases. The determined free antibody concentrations for the competition experiment were plotted versus the peptide competitor concentration. The regeneration was performed using a Guanidinium/NaOH solution, as supplied by Cytiva. Two independent series were analyzed for each interaction. The Affinity in Solution model from Biacore Evaluation software was used to evaluate the data.

[2] = target: T1, AFP(243-261)[Ac-243; Asn(G2)251; Bi-PEG]; experiment: SPR Biacore T200, 37 C; simulation for 7.3 µM-10 nM extrapolated from measured data; SPR simulation for 7.3 µM-10 nM, extrapolated lower bound
[3] = target: T2, AFP(243-261)[Acetyl-243; Asn(G0F)251; …; experiment: SPR; ratio of KD against the KD for AFP(243-261)-G0F-Bi (reference itself)
Method: as §1, §2

[4] = target: T3, AFP(243-261)[Asn(Fuc-GlcNAc)Bi-PEG]; experiment: SPR; ratio of KD against the KD for AFP(243-261)-G0F-Bi
[5] = target: T3, AFP(243-261)[Asn(Fuc-GlcNAc)Bi-PEG]; experiment: SPR Biacore T200, 37 C, antibody captured on C1 chip, peptide as analyte, Langmuir 1:1
Method: (§3) Detailed kinetic investigations were performed using a BIAcore™ T200 instrument from GE Healthcare at 37° C. The 5 rabbit mAb<AFP-L3>L9B12, 3C5, 3D2, 3A3 and 6B6, identified via the kinetic screening, were kinetically characterized for binding AFP-L3 peptides [0656] […] Asn(G0F)-Bi [0658]
(§4) The rabbit antibody capture system was immobilized on flow cells 1-4 as described with 700 to 800 RU. Flow cell 1 served as reference, flow cells 2, 3 and 4 were used for interaction measurements. 150 nM antibodies 1-5 were injected at 10 μL/min for 30 seconds. The Capture Levels (CL) in resonance units RU were monitored. Peptide analyte concentration series from 3.3-270 nM were injected at 60 μl/min. The association phase was monitored for 3 minutes, the dissociation phase was monitored for 10 minutes. The regeneration was performed by an injection of 10 mM Glycine pH 2.0 at 20 μL/min for 30 seconds, followed by 2 injections of 10 mM Glycine pH 2.25 for 60 seconds. The kinetic rate constants and the dissociation equilibrium constants KD were determined using a Langmuir 1:1 fitting model according to the BIAcore™ T200 Evaluation SW 3.2. Secondly, the Langmuir 1:1 fitting Scrubber-SW V2.0c was applied.

[6] = target: T2, AFP(243-261)[Acetyl-243; Asn(G0F)251; …; experiment: as above
Method: as §3, §4

[7] = target: T3, AFP(243-261)[Asn(Fuc-GlcNAc)Bi-PEG]; experiment: SPR Biacore T200, 37 C; molar ratio (binding stoichiometry)
Method: as §3, §4

[8] = target: T2, AFP(243-261)[Acetyl-243; Asn(G0F)251; …; experiment: as above
Method: as §3, §4

[9] = target: T1, AFP(243-261)[Ac-243; Asn(G2)251; Bi-PEG]; experiment: SPR; ratio of KD against the KD for AFP(243-261)-G0F-Bi; SPR; ratio of KD to the KD for G0F
Method: as §3, §4

[10] = target: B4; experiment: SPR affinity in solution: 10 nM antibody with 200 µM-0.1 nM free peptide, free antibody read on AFP(243-261)-G0F-Bi CAP chip, n=2
Method: as §1, §2

[11] = target: B4; experiment: affinity in solution; ratio of KD against the KD for AFP(243-261)-G0F
Method: as §1, §2

[12] = target: T1, AFP(243-261)[Ac-243; Asn(G2)251; Bi-PEG]; experiment: SPR Biacore T200, 37 C, weak binding (cell shifted to the kd column); SPR, weak binding; KD only, no rate constants
[13] = target: T2, AFP(243-261)[Acetyl-243; Asn(G0F)251; …; experiment: SPR Biacore T200, 37 C, antibody captured on C1 chip, peptide as analyte, Langmuir 1:1; apparent value (complex binding behavior)
Method: as §3, §4
By visual inspection, the kinetic signature for antibody 3C5 is close to the antibody saturation for the highest shown concentration 90 nM.

[14] = target: B2; experiment: SPR affinity in solution (Biacore, CAP chip): 10 nM antibody equilibrated with the non-biotinylated peptide at varied concentration; free antibody measured by its binding to captured AFP(243-261)-G0F-Bi; n=2 [continued), upper plot]
Method: as §1, §2

[15] = target: B1; experiment: SPR affinity in solution (Biacore, CAP chip): 10 nM antibody equilibrated with the non-biotinylated peptide at varied concentration; free antibody measured by its binding to captured AFP(243-261)-G0F-Bi; n=2
Method: as §1, §2

[16] = target: B2; experiment: SPR affinity in solution (Biacore, CAP chip): 10 nM antibody equilibrated with the non-biotinylated, non-glycosylated peptide at varied concentration; free antibody measured by its binding to captured AFP(243-261)-G0F-Bi; n=2 [continued]
Method: as §1, §2

[17] = target: B1; experiment: SPR affinity in solution (Biacore, CAP chip): 10 nM antibody equilibrated with the non-biotinylated, non-glycosylated peptide at varied concentration; free antibody measured by its binding to captured AFP(243-261)-G0F-Bi; n=2 [continued), lower plot]
Method: as §1, §2

Binder	Kd [1]	Delta KD [3]	Delta KD [4]	Kd [5]	koff [5]	kon [5]	t/2 diss [5]	MR [7]	MR [8]	Delta KD [9]	Kd [10]	Delta KD [11]	further results
B1	0.9 nM	1 fold	> 7 fold	18 nM	0.0047 s⁻¹	270000 M⁻¹ s⁻¹	2.5 min	1.3	1.4	> 245 fold	5700 nM	> 5000 fold	Kd [2]: > 620 nM; Kd [6]: 2.5 nM; koff [6]: 0.0015 s⁻¹; kon [6]: 600000 M⁻¹ s⁻¹; t/2 diss [6]: 8 min
B2	0.4 nM	1 fold	> 11 fold	35 nM	0.016 s⁻¹	450000 M⁻¹ s⁻¹	0.7 min	1.5	1.6	> 180 fold	12600 nM	> 5000 fold	Kd [12]: 560 nM; Kd [13]: 3.1 nM; koff [13]: 0.0032 s⁻¹; kon [13]: 1e+06 M⁻¹ s⁻¹
B3	–	–	–	–	–	–	–	–	–	–	–	–	IC50 (read off the curve) [14]: ~5 nM; IC50 (read off the curve) [15]: ~6 nM
B4	–	–	–	–	–	–	–	–	–	–	–	–	binding result [16]: binds; binding result [17]: binds
